As usually defined, the koff is the rate constant with which the complex falls apart. As a reminder, the Kd is the equilibrium constant for the complex coming apart.

For experiment [1], the target named is T1, FcɛRIα (recombinant, soluble) (human, UniProt P12319 26-205).
T1 chain: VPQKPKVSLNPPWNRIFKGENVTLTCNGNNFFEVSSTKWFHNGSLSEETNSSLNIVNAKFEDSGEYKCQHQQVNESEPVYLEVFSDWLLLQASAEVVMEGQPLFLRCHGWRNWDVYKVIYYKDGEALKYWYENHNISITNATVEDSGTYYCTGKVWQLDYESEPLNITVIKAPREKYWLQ
The experiment can be described thus: SPR; mammalian-derived IgE-Fc3-4. In general terms: SPR reads the build-up and loss of mass on a sensor chip optically.

Experiment [2] addresses T1, FcɛRIα (recombinant, soluble). The experiment can be described thus: SPR; insect-derived IgE-Fc3-4.
For experiment [3] the target is unchanged. The experiment in a line: SPR; insect-derived IgE-Fc3-4.
The target is the same in experiment [4]. The experiment in a line: SPR; mammalian-derived IgE-Fc3-4.
Experiment [5] has the same target. The experiment can be described thus: SPR; mammalian-derived.
Experiment [6] has the same target. The experiment in a line: SPR; mammalian-derived.

B1: IgE-Fc3–4 (wild type) (domain or fragment)
chain: CADSNPRGVSAYLSRPSPFDLFIRKSPTITCLVVDLAPSKGTVNLTWSRASGKPVNHSTRKEEKQRNGTLTVTSTLPVGTRDWIEGETYQCRVTHPHLPRALMRSTTKTSGPRAAPEVYAFATPEWPGSRDKRTLACLIQNFMPEDISVQWLHNEVQLPDARHSTTQPRKTKGSGFFVFSRLEVTRAEWEQKDEFICRAVHEAASPSQTVQRAVSVNPGK
For the molecule B1, the koff turned out to be 0.00102 s⁻¹ in experiment [1] and 0.000946 s⁻¹ in experiment [3]. Further, the Kd in experiment [2] was 660 pM; in experiment [4], 933 pM.

B2: IgE-R419N-Fc3–4 (domain or fragment)
chain: CADSNPRGVSAYLSRPSPFDLFIRKSPTITCLVVDLAPSKGTVNLTWSRASGKPVNHSTRKEEKQRNGTLTVTSTLPVGTRDWIEGETYQCNVTHPHLPRALMRSTTKTSGPRAAPEVYAFATPEWPGSRDKRTLACLIQNFMPEDISVQWLHNEVQLPDARHSTTQPRKTKGSGFFVFSRLEVTRAEWEQKDEFICRAVHEAASPSQTVQRAVSVNPGK
modifications: additional N-linked glycan at the site made by R419N (NVT)
Take B2: in experiment [5], the Kd came out at 2260 pM. For the same molecule, the koff in experiment [6] was 0.000773 s⁻¹.

These data come from PMC4873975 (2016).
